In US20040248129A1, “Rhesus monkey, dog and feeret melanin-concentrating hormone type 1 receptor” (priority 2001, published 2004):
“And” between values parts separate entries of the source, which are not always exact repeats. Equal entries are not always repeated. Blank lines part the entries; values can stand above or below the molecule they belong to. Positions of bridges follow the written chain, without caps; N, C: chain ends. No end group written: not given here.

Tests used:
rhesus MCH-1R [1] = target: T1, rhesus MCH-1R (Macaca mulatta, UniProt Q8MJ89); test: Intracellular calcium (fura-2) in HEK293T cells transiently expressing rhesus MCH-1R; assay type: cell-based, rhesus monkey; settings: read-out: EC50, increase in intracellular calcium levels
T1 construct: expressed in transfected cells; host or cells: HEK293T
Text: The entire coding sequence of rhesus MCH-1R was cloned into EcoRI-NotI site of pEF1lV5-HisB plasmid vector (Invitrogen, Carlsbad, Calif.). The resultant construct was transfected into HEK293T cells using LipofectAmine PLUS (Life Technologies, Rockville, Md.) according to the manufacture's instructions. Human embryonic kidney cells constitutively expressing SV40 large T antigen (HEK-293T) were maintained in Dulbecco's modified Eagle medium (Life Technologies) supplemented with 10% fetal bovine serum, 100 units/ml penicillin-G and 100 μg/ml streptomycin at 37° C. with 5% CO2 in a humidified atmosphere.
The intracellular calcium ion concentration ([Ca^2+]i) was measured fluorometrically using a Ca^2+-sensitive fluorescent dye, fura-2. HEK293T cells transiently transfected with pEF1N5-HisB plasmid vector harboring rhesus MCH-1R cDNA were harvested by phosphate-buffered saline containing 2 mM EDTA 48 hours after transfection, and washed once with the assay buffer (Hanks' balanced salt solution containing 20 mM HEPES and 0.1% BSA, pH 7.4). […] Data were analyzed using the software GraphPad Prism Version 3.0 (GraphPad Software, Inc., San Diego, Calif., USA).

rhesus MCH-1R [2] = target: T1, rhesus MCH-1R; test: Inhibition of [125I]-MCH binding to rhesus MCH-1R expressed on HEK293T cells (filtration); design: species or system rhesus monkey; settings: 100 pM [125I]-MCH, 4×10^5 cells/tube, 30 min, 37° C.
Procedure: (§1) HEK293T cells transfected with pEF1IV5-HisB/MCH1R plasmid were harvested by phosphate-buffered saline containing 2 mM EDTA 48 hours after transfection, and washed once with the assay buffer (Hanks' balanced salt solution containing 20 mM HEPES, 0.2% BSA and 100 μg/ml bacitracin, pH 7.4). The cells (4×10^5 cells/tube) were then incubated in 250 μl/tube of the same buffer with 100 pM […] for 30 minutes at 37° C. After the incubation, bound and free [^25I]-MCH were separated by filtration using a Unifilter GF/B glass filter (Packard Instrument) presoaked with 0.3% polyethylenimine. The remaining radioactivity on the filter was quantitated using a TopCount HTS (Packard instrument) with a Microscint 0 scintillation cocktail (Packard instrument). Specific binding was defined as the difference between total binding and nonspecific binding in the presence of 1 μM cold MCH. Data were analyzed using GraphPad Prism Version 3.0.

[3] = tested on: mock transfected cells (HEK293T); test: Radioligand binding to mock transfected HEK293T cells; design: species or system human
rhesus MCH-1R [4] = target: T1, rhesus MCH-1R; test: Radioligand binding to adherent HEK293T cells transfected with rhesus MCH-1R; design: species or system rhesus monkey
Procedure: HEK293T cells were seeded into 24-well culture plates coated with poly-D-Lys at 1×10^5 cells/well and were cultured during over-night. The adherent cells were transfected with pEF1/V5-HisB/rhesus MCH-1R plasmid (see Example 2). Forty-eight hours after transfection, the transfected monolayer cells were rinsed with the assay buffer (Hanks' balanced salt solution containing 20 mM HEPES, 0.2% BSA and 100 μg/ml bacitracin, pH 7.4). The cells were then incubated in 250 μl well of the same buffer with [^125I]-MCH (100 pM, NEN Life Science Products, Boston, Mass.) or [^125I]-[Phe^13,Tyr^19]-MCH (100 pM, NEN Life Science Products) for 30 minutes at 37° C. After the incubation, the cells were washed three times with the ice cold assay buffer and lysed with 500 μl/well of 2 M NaOH. The lysates were transferred into test tubes and the cell- bound radioactivity was measured by a COBLA Quantum γ-counter (Packard Instrument, Meriden, CT). Nonspecific binding was defined in the presence of 1 μM cold MCH or [Phe^13,Tyr^19]-MCH for the corresponding radio ligands.

[5] = target: rhesus monkey MCH-1R (melanin-concentrating hormone type 1 receptor) (rhesus monkey) (UniProt Q8MJ89); test: radioligand binding, 100 pM, HEK293T cells expressing rhesus MCH-1R, replicate 3
[6] = target: rhesus monkey MCH-1R (melanin-concentrating hormone type 1 receptor) (rhesus monkey) (UniProt Q8MJ89); test: radioligand binding, 100 pM, in the presence of 1 uM cold [Phe13,Tyr19]-MCH, HEK293T cells expressing rhesus MCH-1R, replicate 2
[7] = target: rhesus monkey MCH-1R (melanin-concentrating hormone type 1 receptor) (rhesus monkey) (UniProt Q8MJ89); test: radioligand binding, 100 pM, HEK293T cells expressing rhesus MCH-1R, replicate 2
[8] = target: rhesus monkey MCH-1R (melanin-concentrating hormone type 1 receptor) (rhesus monkey) (UniProt Q8MJ89); test: radioligand binding, 100 pM, in the presence of 1 uM cold [Phe13,Tyr19]-MCH, HEK293T cells expressing rhesus MCH-1R, replicate 1
[9] = target: rhesus monkey MCH-1R (melanin-concentrating hormone type 1 receptor) (rhesus monkey) (UniProt Q8MJ89); test: radioligand binding, 100 pM, HEK293T cells expressing rhesus MCH-1R, replicate 1
[10] = target: rhesus monkey MCH-1R (melanin-concentrating hormone type 1 receptor) (rhesus monkey) (UniProt Q8MJ89); test: radioligand binding, 100 pM, in the presence of 1 uM cold [Phe13,Tyr19]-MCH, HEK293T cells expressing rhesus MCH-1R, replicate 3
[11] = target: T2, rhesus monkey MCH-1R (melanin-concentrating hormone type 1 receptor) (rhesus monkey), Q8MJ89; test: cell-based or functional assay
T2 chain: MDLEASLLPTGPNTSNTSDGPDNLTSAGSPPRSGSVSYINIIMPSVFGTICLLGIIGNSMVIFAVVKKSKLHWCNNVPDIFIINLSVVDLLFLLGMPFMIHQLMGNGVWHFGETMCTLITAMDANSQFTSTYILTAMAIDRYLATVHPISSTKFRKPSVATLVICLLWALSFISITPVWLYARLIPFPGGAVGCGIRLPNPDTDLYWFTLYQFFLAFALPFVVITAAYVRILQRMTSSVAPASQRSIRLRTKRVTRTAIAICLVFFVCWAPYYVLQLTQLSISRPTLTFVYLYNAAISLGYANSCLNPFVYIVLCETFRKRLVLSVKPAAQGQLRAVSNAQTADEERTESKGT

[12] = target: T2, rhesus monkey MCH-1R …; test: displacement of 100 pM [125I]-MCH from HEK293T cells expressing rhesus MCH-1R, filtration
[13] = target: T3, rhesus monkey MCH-1R (melanin-concentrating hormone type 1 receptor) (rhesus monkey, UniProt Q8MJ89 1-353); test: cell-based or functional assay
[14] = target: T3, rhesus monkey MCH-1R …; test: displacement of 100 pM [125I]-MCH from HEK293T cells expressing rhesus MCH-1R, filtration
Procedure: as §1, with “(4×10⁵” for “(4×10^5”, “[²⁵I]-MCH” for “[^25I]-MCH”
IC₅₀ values of MCH and [Phe¹³,Tyr¹⁹]-MCH in this experiment were calculated as 0.074 and 0.14 nM, respectively.

[15] = Mock transfected HEK293T, 100 pM radioligand
[16] = Rhesus MCH-1R transfected HEK293T, 100 pM radioligand, 30 min, 37° C.

EC50 (rhesus MCH-1R [1]): 0.3 nM
IC50 (rhesus MCH-1R [2]): 0.074 nM
Molecule: CSCC[C@@H]1NC(=O)[C@@H](NC(=O)[C@H](CCCNC(=N)N)NC(=O)[C@H](CC(C)C)NC(=O)[C@H](CCSC)NC(=O)[C@H](CC(=O)O)NC(=O)[C@H](Cc2ccccc2)NC(=O)[C@@H](N)CC(=O)O)CSSC[C@@H](C(=O)N[C@@H](Cc2c[nH]c3ccccc23)C(=O)N[C@@H](CCC(N)=O)C(=O)N[C@H](C(=O)O)C(C)C)NC(=O)[C@@H]2CCCN2C(=O)[C@H](CCCNC(=N)N)NC(=O)[C@H](Cc2ccc(O)cc2)NC(=O)[C@H](C(C)C)NC(=O)[C@H](CCCNC(=N)N)NC(=O)CNC(=O)[C@H](CC(C)C)NC1=O [MCH, Melanin-concentrating hormone]

[125I]-MCH binding, Total binding (rhesus MCH-1R [4]; [16]): 2542.8 cpm and 2893.4 cpm and 2315.5 cpm
Molecule: [^125I]-MCH
Specific binding into mock transfected cells (in words) ([3]; 100 pM radioligand): Specific binding was not observed
[125I]-MCH binding, Total binding [3, 15]: 209.9 cpm and 215.8 cpm and 239.8 cpm
[125I]-MCH binding, Nonspecific binding ([3]; Mock transfected HEK293T, 100 pM radioligand in the presence of 1 μM cold MCH): 172.0 cpm and 180.9 cpm and 184.1 cpm
Binding to HEK293T cells expressing rhesus MCH-1R (in words) (rhesus MCH-1R [4]; 100 pM radioligand): bound to the HEK293T cells expressing rhesus MCH-1R with good windows

[125I]-[Phe13,Tyr19]-MCH binding, Nonspecific binding (rhesus MCH-1R [4]; Rhesus MCH-1R transfected HEK293T, 100 pM radioligand in the presence of 1 μM cold [Phe13,Tyr19]-MCH): 1524.1 cpm and 2023.5 cpm and 1029.6 cpm
[125I]-[Phe13,Tyr19]-MCH binding, Total binding (rhesus MCH-1R [4]; [16]): 5353.0 cpm and 5542.3 cpm and 6345.9 cpm
Molecule: [^125I]-[Phe^13,Tyr^19]-MCH
Specific binding into mock transfected cells (in words) ([3]; 100 pM radioligand): Specific binding was not observed
[125I]-[Phe13,Tyr19]-MCH binding, Total binding [3, 15]: 708.9 cpm and 663.3 cpm and 771.5 cpm
[125I]-[Phe13,Tyr19]-MCH binding, Nonspecific binding ([3]; Mock transfected HEK293T, 100 pM radioligand in the presence of 1 μM cold [Phe13,Tyr19]-MCH): 539.7 cpm and 537.7 cpm and 557.8 cpm
Binding to HEK293T cells expressing rhesus MCH-1R (in words) (rhesus MCH-1R [4]; 100 pM radioligand): bound to the HEK293T cells expressing rhesus MCH-1R with good windows

Total binding (cpm) [5]: 6350 cpm
Nonspecific binding (cpm) [6]: 2020 cpm
Total binding (cpm) [7]: 5540 cpm
Nonspecific binding (cpm) [8]: 1520 cpm
Total binding (cpm) [9]: 5350 cpm
Nonspecific binding (cpm) [10]: 1030 cpm
Molecule: [^125I]-[Phe^13,Tyr^19]-MCH (from UniProt P20382 147-165) (peptide)

increase in intracellular calcium levels (fura-2) in HEK293T cells transiently expressing rhesus MCH-1R, EC50 [11]: 0.3 nM
IC50 [12]: 0.074 nM
Molecule: DFDMLRCMLGRVYRPCWQV (peptide, UniProt P20382 147-165, looked up, modifications not checked) [MCH (melanin-concentrating hormone), unlabelled, P20382 147-165]

increase in intracellular calcium levels (fura-2) in HEK293T cells transiently expressing rhesus MCH-1R, EC50 [13]: 1.1 nM
IC50 [14]: 0.14 nM
B1: [Phe^13,Tyr^19]-MCH, unlabelled (peptide)
peptide: DFDMLRCMLGRVFRPCWQY
modifications: disulfide 7-16 (inferred)
notes: Only the new residues (Phe13, Tyr19) are printed; also called cold [Phe^13,Tyr^19]-MCH
